# B1: TRIM43 (parent)
# chain: NNSWIRKNSTMVNSEDIFLLLCLK
# B2: SMOC2 (parent)
# chain: DCAGSPQKPLCASDGRTFLSRCEF
# Variants of: B1
# Experiment: protein stability index of a GFP-peptide fusion (GPS, HEK-293T) (PSI 1-6); higher = more stable
# Conditions: c terminus: a fixed tail appended
# 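Note: lentivirally expressed fusions sorted by FACS into six bins by GFP to DsRed ratio, PSI derived from sequencing read proportions per bin multiplied by bin number.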
row,Variant,protein stability index
1,NNSWIRKNSTMVNSEDIFLLLCLD [K24D],3.92
2,NNSWIRKNSTMVNSEDIFLLLCLM [K24M],3.1
3,NNSWIRKNSTMVNSEDIFLLLCLE [K24E],4.39
4,NNSWIRKNSTMVNSEDIFLLLCLN [K24N],2.86
5,NNSWIRKNSTMVNSEDIFLLLCLH [K24H],2.87
6,NNSWIRKNSTMVNSEDIFLLLCLG [K24G],3.84
7,NNSWIRKNSTMVNSEDIFLLLCLV [K24V],2.38
8,NNSWIRKNSTMVNSEDIFLLLCLS [K24S],3.16
9,NNSWIRKNSTMVNSEDIFLLLCLC [K24C],2.79
10,NNSWIRKNSTMVNSEDIFLLLCLT [K24T],2.05
11,NNSWIRKNSTMVNSEDIFLLLCLW [K24W],2.28
12,NNSWIRKNSTMVNSEDIFLLLCLA [K24A],3.16
13,NNSWIRKNSTMVNSEDIFLLLCLP [K24P],3.69
14,NNSWIRKNSTMVNSEDIFLLLCLQ [K24Q],3.08
15,NNSWIRKNSTMVNSEDIFLLLCLY [K24Y],3.18
16,NNSWIRKNSTMVNSEDIFLLLCLI [K24I],2.33
17,NNSWIRKNSTMVNSEDIFLLLCLR [K24R],3.57
18,NNSWIRKNSTMVNSEDIFLLLCLL [K24L],2.72
19,NNSWIRKNSTMVNSEDIFLLLCWK [L23W],3.66
20,NNSWIRKNSTMVNSEDIFLLLCRK [L23R],1.55
21,NNSWIRKNSTMVNSEDIFLLLCTK [L23T],2.42
22,NNSWIRKNSTMVNSEDIFLLLCSK [L23S],2.42
23,NNSWIRKNSTMVNSEDIFLLLCYK [L23Y],2.25

# Variants of: B2
# Experiment: as above
# Conditions: c terminus: a fixed tail appended
row,Variant,protein stability index
1,DCAGSPQKPLCASDGRTFLSRCEV [F24V],3.32
2,DCAGSPQKPLCASDGRTFLSRCEW [F24W],2.02
3,DCAGSPQKPLCASDGRTFLSRCEH [F24H],3.79
4,DCAGSPQKPLCASDGRTFLSRCEI [F24I],3.16
5,DCAGSPQKPLCASDGRTFLSRCEL [F24L],3.44
6,DCAGSPQKPLCASDGRTFMSRCEF [L19M],2.99
7,DCAGSPQKPLCASDGRTFSSRCEF [L19S],3.06
8,DCAGSPQKPLCASDGRTFPSRCEF [L19P],3.97
9,DCAGSPQKPLCASDGRTFHSRCEF [L19H],3.82
10,DCAGSPQKPLCASDGRTFGSRCEF [L19G],3.07
11,DCAGSPQKPLCASDGRTFCSRCEF [L19C],3.85
12,DCAGSPQKPLCFSDGRTFLSRCEF [A12F],1.89
13,DCAGSPQKPLCHSDGRTFLSRCEF [A12H],2.18
14,DCAGSPQKPLCGSDGRTFLSRCEF [A12G],2.29
15,DCAGSPQKPLCASDGRTFLFRCEF [S20F],1.25
16,DCAGSPQKPLCASDGRTFLNRCEF [S20N],3.64
17,DCAGSPQKPLCASDGRTFLKRCEF [S20K],3.04
18,DCAGSPQKPLCASDGRTFLCRCEF [S20C],2.86
19,DCAGSPQKPLCASDGRTFLPRCEF [S20P],3.59
20,DCAGSPQKPLCASDGRTFLERCEF [S20E],2.93
21,DCAGSPQKPLCASDGRTFLARCEF [S20A],2.85
22,DCAGSPQKPLCASDGRTFLMRCEF [S20M],1.41
23,DCAGSPQKPLCASDGRTFLLRCEF [S20L],3.1
24,DCAGSPQKPLCASDGRTFLVRCEF [S20V],3.04

row,Variant,protein stability index
1,DCAGSPQKPLCASDGRTFLRRCEF [S20R],3.23
2,DCAGSPQKPLCASDGDTFLSRCEF [R16D],4.12
3,DCAGSPQKPLCASDGLTFLSRCEF [R16L],2.5
4,DCAGSPQKPLCASDGGTFLSRCEF [R16G],3.4
5,DCAGSPQKPLCASDGSTFLSRCEF [R16S],3.08
6,DCAGSPQKPLCASDGKTFLSRCEF [R16K],3.29
7,DCAGSPQKPLCASDGWTFLSRCEF [R16W],1.72
8,DCAGSPQKPLCASDGHTFLSRCEF [R16H],3.97
9,DCAGSPQKPLCASDGPTFLSRCEF [R16P],3.43
10,NCAGSPQKPLCASDGRTFLSRCEF [D1N],2.2
11,RCAGSPQKPLCASDGRTFLSRCEF [D1R],1.55
12,HCAGSPQKPLCASDGRTFLSRCEF [D1H],2.02
13,VCAGSPQKPLCASDGRTFLSRCEF [D1V],2.35
14,TCAGSPQKPLCASDGRTFLSRCEF [D1T],2.59
15,YCAGSPQKPLCASDGRTFLSRCEF [D1Y],1.72
16,DCAGSPQKPLCASDGRAFLSRCEF [T17A],2.83
17,DCAGSPQKPLCASDGRHFLSRCEF [T17H],3.45
18,DCAGSPQKPLCASDGRVFLSRCEF [T17V],2.22
19,DCAGSPQKPLCASDGRMFLSRCEF [T17M],3.31
20,DCAGSPQKPLCASDGRFFLSRCEF [T17F],2.32
21,DCAGSPQKPLCASDGRTFLSRCCF [E23C],2.53
22,DCAGSPQKPLCASDGRTFLSRCMF [E23M],2.1
23,DCAGSPQKPLCASDGRTFLSRCLF [E23L],4.25
24,DCAGSPQKPLCASDGRTFLSRCVF [E23V],1.73

row,Variant,protein stability index
1,DCAGSPQKPLCASDGRTFLSRCKF [E23K],3.63
2,DCAGSPQKPLCASDGRTFLSRCYF [E23Y],1.84
3,DCAGSPQKPLCASDGRTFLSRCNF [E23N],3.31
4,DCAESPQKPLCASDGRTFLSRCEF [G4E],3.83
5,DCAPSPQKPLCASDGRTFLSRCEF [G4P],2.56
6,DCAISPQKPLCASDGRTFLSRCEF [G4I],2.87
7,DCATSPQKPLCASDGRTFLSRCEF [G4T],3.2
8,DCAFSPQKPLCASDGRTFLSRCEF [G4F],2.23
9,DCAGSVQKPLCASDGRTFLSRCEF [P6V],1.8
10,DCAGSYQKPLCASDGRTFLSRCEF [P6Y],2.62
11,DCAGSDQKPLCASDGRTFLSRCEF [P6D],2.46
12,DCAGSTQKPLCASDGRTFLSRCEF [P6T],2.53
13,DCAGSEQKPLCASDGRTFLSRCEF [P6E],3.15
14,DCAGSWQKPLCASDGRTFLSRCEF [P6W],2.08
15,DCAGSPQKPLCASDGRTALSRCEF [F18A],3.52
16,DCAGSPQKPLCASDGRTGLSRCEF [F18G],4.82
17,DCAGSPQKPLCASDGRTHLSRCEF [F18H],4.32
18,DCAGSPQKPLCASDGRTWLSRCEF [F18W],1.79
19,DCAGSPQKPLCASDGRTDLSRCEF [F18D],4.51
20,DCAGSPQKPLCASDGRTKLSRCEF [F18K],4.09
21,DCAGSPQKPLCASDGRTELSRCEF [F18E],4.54
22,DCAGSPQKPLCASDGRTNLSRCEF [F18N],4.26
23,DCAGSPQKPLCASDGRTPLSRCEF [F18P],4
